Here are results for 2 molecules from patent US20240035059A1 (NATIONAL UNIVERSITY OF SINGAPORE, published 2024).

Assay [1] concerns the target CT7-Tlpa coil fusion protein (Tlpa coiled-coil domain - GGSGG linker - C-terminal T7 RNA polymerase fragment) (T7 phage). In words: cell-based or functional assay.
The target of assay [2] is CT7 protein fragment (C-terminal T7 RNA polymerase fragment without Tlpa coiled-coil) (T7 phage, UniProt P00573 564-883). In words: cell-based or functional assay.

In the case of “NT7-Tlpa coil fusion protein (N-terminal T7 RNA polymerase fragment - GGSGG linker - Tlpa coiled-coil domain)”, in assay [1], the fold-difference of pT7-GFP reporter between 30° C. and 42° C., Thermal-T7RNAP(v3) turned out to be 24 fold; the half-activation temperature Km of pT7-GFP reporter, Thermal-T7RNAP(v1) was determined as 37.5 ° C; the half-activation temperature Km of pT7-GFP reporter, Thermal-T7RNAP(v2) turned out to be 38.4 ° C; the half-activation temperature Km of pT7-GFP reporter, Thermal-T7RNAP(v3) worked out at 36.3 ° C. In assay [1], this molecule displayed a maximum repression capacity Kinh of pT7-GFP reporter, Thermal-T7RNAP(v1) of 0.957; a maximum repression capacity Kinh of pT7-GFP reporter, Thermal-T7RNAP(v2) of 0.427; a maximum repression capacity Kinh of pT7-GFP reporter, Thermal-T7RNAP(v3) of 0.971.

B1: NT7 protein fragment (N-terminal T7 RNA polymerase fragment without Tlpa coiled-coil) (other)
chain: MNTINIAKNDFSDIELAAIPFNTLADHYGERLAREQLALEHESYEMGEARFRKMFERQLKAGEVADNAAAKPLITTLLPKMIARINDWFEEVKAKRGKRPTAFQFLQEIKPEAVAYITIKTTLACLTSADNTTVQAVASAIGRAIEDEARFGRIRDLEAKHFKKNVEEQLNKRVGHVYKKAFMQVVEADMLSKGLLGGEAWSSWHKEDSIHVGVRCIEMLIESTGMVSLHRQNAGVVGQDSETIELAPEYAEAIATRAGALAGISPMFQPCVVPPKPWTGITGGGYWANGRRPLALVRTHSKKALMRYEDVYMPEVYKAINIAQNTAWKINKKVLAVANVITKWKHCPVEDIPAIEREELPMKPEDIDMNPEALTAWKRAAAAVYRKDKARKSRRISLEFMLEQANKFANHKAIWFPYNMDWRGRVYAVSMFNPQGNDMTKGLLTLAKGKPIGKEGYYWLKIHGANCAGVDKVPFPERIKFIEENHENIMACAKSPLENTWWAEQDSPFCFLAFCFEYAGVQHHGLSYNCSLPLAFDGSCSGIQHFSAMLRDEVGGRAVNLLP
As to B1, the “fold-difference of pT7-GFP reporter between 30° C. and 42° C., Split-T7 system (no Tlpa coil)” value in assay [2] was found to be 4 fold.
